# Measured values as given in the supplement of paper PMC9112550, “Optimization of the antimicrobial peptide Bac7 by deep mutational scanning” (BMC Biology, 2022).
# System: Escherichia coli TOP10
# Test: shrunken log2 fold change of peptide-encoding DNA abundance (4.5 h post-induction vs induction); higher = less antimicrobial activity (less host growth inhibition)
# Settings: time post-induction: 4.5 h; library: site-saturation at positions 5, 18, 19, 20
# 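Also: peptides expressed intracellularly from a pBAD plasmid library in pooled LB shake-flask culture, induced with 0.3% L-arabinose, DNA abundance read by NGS, three biological replicates, DESeq2 with apeglm shrinkage.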
row,Sequence,shrunken log2 fold change
1,RRIRGRPPRLPRPRPRPNNLPRP,-0.349
2,RRIRRRPPRLPRPRPRPCSQPRP,0.0499
3,RRIRMRPPRLPRPRPRPNYCPRP,-0.0723
4,RRIRIRPPRLPRPRPRPNKYPRP,-0.932
5,RRIRPRPPRLPRPRPRPDDNPRP,-0.0275
6,RRIRARPPRLPRPRPRPHFFPRP,1.8
7,RRIRGRPPRLPRPRPRPTLGPRP,0.936
8,RRIRRRPPRLPRPRPRPKWNPRP,0.0781
9,RRIRERPPRLPRPRPRPMFDPRP,-0.121
10,RRIRIRPPRLPRPRPRPPSTPRP,0.0126
11,RRIRWRPPRLPRPRPRPIAMPRP,0.256
12,RRIRDRPPRLPRPRPRPTAPPRP,0.365
13,RRIRPRPPRLPRPRPRPCQVPRP,-0.132
14,RRIRDRPPRLPRPRPRPSITPRP,-0.197
15,RRIRKRPPRLPRPRPRPKHQPRP,0.132
16,RRIRARPPRLPRPRPRPGCGPRP,0.887
17,RRIRVRPPRLPRPRPRPPRGPRP,0.665
18,RRIRPRPPRLPRPRPRPQGQPRP,0.0372
19,RRIRSRPPRLPRPRPRPDENPRP,0.11
20,RRIRCRPPRLPRPRPRPGFHPRP,-0.435
21,RRIRHRPPRLPRPRPRPRWNPRP,-0.065
22,RRIRPRPPRLPRPRPRPQHGPRP,-0.189
23,RRIRWRPPRLPRPRPRPHNKPRP,-0.39
24,RRIRDRPPRLPRPRPRPDGEPRP,-0.0121
25,RRIRTRPPRLPRPRPRPADKPRP,-0.257

row,Sequence,shrunken log2 fold change
1,RRIRERPPRLPRPRPRPNVPPRP,-0.0158
2,RRIRSRPPRLPRPRPRPPQVPRP,-0.0457
3,RRIRYRPPRLPRPRPRPPDEPRP,0.0398
4,RRIRARPPRLPRPRPRPCEQPRP,0.233
5,RRIRYRPPRLPRPRPRPIETPRP,-0.0177
6,RRIRDRPPRLPRPRPRPYGTPRP,-0.234
7,RRIRWRPPRLPRPRPRPKQSPRP,0.698
8,RRIRQRPPRLPRPRPRPFQEPRP,-0.0113
9,RRIRHRPPRLPRPRPRPFHIPRP,-0.0345
10,RRIRYRPPRLPRPRPRPCIDPRP,-0.00448
11,RRIRPRPPRLPRPRPRPDGYPRP,-0.246
12,RRIRNRPPRLPRPRPRPHFAPRP,0.0588
13,RRIRTRPPRLPRPRPRPQFIPRP,-0.07
14,RRIRYRPPRLPRPRPRPMYHPRP,-0.707
15,RRIRYRPPRLPRPRPRPVDFPRP,-0.226
16,RRIRYRPPRLPRPRPRPYTWPRP,-0.571
17,RRIRPRPPRLPRPRPRPPVFPRP,0.308
18,RRIRFRPPRLPRPRPRPQETPRP,-0.0613
19,RRIRYRPPRLPRPRPRPMQGPRP,-0.0463
20,RRIRPRPPRLPRPRPRPMEHPRP,-0.0171
21,RRIRERPPRLPRPRPRPHASPRP,-0.346
22,RRIRNRPPRLPRPRPRPVIPPRP,-0.462
23,RRIRVRPPRLPRPRPRPQLKPRP,-0.177
24,RRIRWRPPRLPRPRPRPCKHPRP,-0.245
25,RRIRYRPPRLPRPRPRPGVDPRP,-0.0308

row,Sequence,shrunken log2 fold change
1,RRIRTRPPRLPRPRPRPQHQPRP,-0.132
2,RRIRQRPPRLPRPRPRPMREPRP,0.0211
3,RRIRWRPPRLPRPRPRPLMIPRP,-0.304
4,RRIRMRPPRLPRPRPRPTREPRP,0.947
5,RRIRCRPPRLPRPRPRPKEDPRP,0.166
6,RRIRQRPPRLPRPRPRPFCDPRP,-0.259
7,RRIRVRPPRLPRPRPRPFDPPRP,-0.0153
8,RRIRFRPPRLPRPRPRPSAIPRP,-0.304
9,RRIRSRPPRLPRPRPRPKEKPRP,-0.00788
10,RRIRHRPPRLPRPRPRPVAAPRP,0.202
11,RRIRNRPPRLPRPRPRPFKTPRP,-0.0614
12,RRIRRRPPRLPRPRPRPEVAPRP,0.345
13,RRIRARPPRLPRPRPRPMCEPRP,0.797
14,RRIRTRPPRLPRPRPRPYIKPRP,-1.22
15,RRIRYRPPRLPRPRPRPRFIPRP,-0.671
16,RRIRCRPPRLPRPRPRPMGAPRP,0.144
17,RRIRPRPPRLPRPRPRPCQLPRP,-0.659
18,RRIRLRPPRLPRPRPRPVMNPRP,-0.18
19,RRIRQRPPRLPRPRPRPVQQPRP,0.142
20,RRIRIRPPRLPRPRPRPIWEPRP,-0.0114
21,RRIRLRPPRLPRPRPRPILQPRP,-0.129
22,RRIRSRPPRLPRPRPRPTCEPRP,0.228
23,RRIRCRPPRLPRPRPRPIQAPRP,0.0936
24,RRIRQRPPRLPRPRPRPMIDPRP,-0.517
25,RRIRCRPPRLPRPRPRPPIEPRP,-0.0198
